Experimental data published in US20050025760A1 (KEIO UNIVERSITY, published 2005).

Biological target: T1, human Dsg3 in human skin or mucosa (human, UniProt P32926 50-999)
T1 construct: whole, on cells; also called human tissues
T1 sequence (looked up): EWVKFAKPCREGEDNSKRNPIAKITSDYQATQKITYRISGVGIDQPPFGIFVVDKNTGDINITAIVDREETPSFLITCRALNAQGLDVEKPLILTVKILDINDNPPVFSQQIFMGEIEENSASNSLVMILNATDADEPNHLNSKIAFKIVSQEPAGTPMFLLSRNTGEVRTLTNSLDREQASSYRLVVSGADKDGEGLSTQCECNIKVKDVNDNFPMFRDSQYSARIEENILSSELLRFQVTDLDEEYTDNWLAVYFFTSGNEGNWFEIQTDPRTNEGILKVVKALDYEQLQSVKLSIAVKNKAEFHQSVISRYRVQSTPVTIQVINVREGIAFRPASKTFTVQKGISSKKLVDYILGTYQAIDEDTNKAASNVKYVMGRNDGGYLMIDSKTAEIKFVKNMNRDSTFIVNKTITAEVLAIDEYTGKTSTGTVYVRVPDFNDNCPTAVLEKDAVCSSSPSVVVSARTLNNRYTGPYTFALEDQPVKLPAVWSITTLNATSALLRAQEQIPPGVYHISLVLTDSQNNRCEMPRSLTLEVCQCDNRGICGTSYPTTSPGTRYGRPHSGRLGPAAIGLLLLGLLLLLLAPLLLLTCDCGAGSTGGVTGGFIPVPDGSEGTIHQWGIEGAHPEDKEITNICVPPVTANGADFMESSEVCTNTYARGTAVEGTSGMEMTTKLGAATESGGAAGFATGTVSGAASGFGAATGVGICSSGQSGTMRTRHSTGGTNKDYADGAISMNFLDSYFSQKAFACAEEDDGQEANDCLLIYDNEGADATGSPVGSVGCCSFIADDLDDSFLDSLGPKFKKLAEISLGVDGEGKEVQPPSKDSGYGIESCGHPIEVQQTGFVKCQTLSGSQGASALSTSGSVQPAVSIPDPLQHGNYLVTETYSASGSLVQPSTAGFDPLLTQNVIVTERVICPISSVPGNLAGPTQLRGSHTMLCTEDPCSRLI
Assay: indirect immunofluorescence on human skin sections
Method: A-5 (Indirect Immunofluorescence) C57B1/6J mouse hard palate, liver and human skin were embedded with OCT compound (SAKURA, USA), then froze and sectioned into 5 μm thickness, and constructed a substrate. After each of hybridoma culture supernatants were reacted for 1 hour at room temperature, they were washed with PBS (3 times), and reacted with ×100 diluted FITC labeled goat anti-mouse IgG (DAKO A/S, Glostrup, Denmark) for 1 hour at room temperature, they were washed with PBS (3 times), and microscopic examination was conducted using a fluorescence microscope.

binding result: binds
B1: anti-Dsg3 monoclonal antibody AK23 (antibody, mouse IgG1, V domains shown)
VH: QVQLQQSGTELVKPGASVKLSCKSSGYTFTSYWINWVKQRPGQGLEWIGNINPSNGGINYNEKFKSKATLTVDKSSSTAYMQLKSLTSEDSAVYYCARGGYDGYPWGQGTTVTVS
VL: DIQMTQSPKFLLVSAGDRVTITCKASQSVSYDVAWYQQKPGQSPKLLISYASNRYTGVPDRFTGSGYGSDFTFTISTVQTEDLAVYFCQQDYSSPWTFGGGTKLELKR
notes: Mouse IgG1 kappa hybridoma antibody
